Results published in patent US20230365642A1 (MEDICENNA THERAPEUTICS, published 2023).

How the values were obtained:
[1] = biological target: T1, IL4R Type-II (IL4Rα chain with IL13Rα1), on cells (UniProt P24394 26-825; P78552 22-427, limits assumed); test: cell-based or functional assay
T1 sequence (looked up) 1: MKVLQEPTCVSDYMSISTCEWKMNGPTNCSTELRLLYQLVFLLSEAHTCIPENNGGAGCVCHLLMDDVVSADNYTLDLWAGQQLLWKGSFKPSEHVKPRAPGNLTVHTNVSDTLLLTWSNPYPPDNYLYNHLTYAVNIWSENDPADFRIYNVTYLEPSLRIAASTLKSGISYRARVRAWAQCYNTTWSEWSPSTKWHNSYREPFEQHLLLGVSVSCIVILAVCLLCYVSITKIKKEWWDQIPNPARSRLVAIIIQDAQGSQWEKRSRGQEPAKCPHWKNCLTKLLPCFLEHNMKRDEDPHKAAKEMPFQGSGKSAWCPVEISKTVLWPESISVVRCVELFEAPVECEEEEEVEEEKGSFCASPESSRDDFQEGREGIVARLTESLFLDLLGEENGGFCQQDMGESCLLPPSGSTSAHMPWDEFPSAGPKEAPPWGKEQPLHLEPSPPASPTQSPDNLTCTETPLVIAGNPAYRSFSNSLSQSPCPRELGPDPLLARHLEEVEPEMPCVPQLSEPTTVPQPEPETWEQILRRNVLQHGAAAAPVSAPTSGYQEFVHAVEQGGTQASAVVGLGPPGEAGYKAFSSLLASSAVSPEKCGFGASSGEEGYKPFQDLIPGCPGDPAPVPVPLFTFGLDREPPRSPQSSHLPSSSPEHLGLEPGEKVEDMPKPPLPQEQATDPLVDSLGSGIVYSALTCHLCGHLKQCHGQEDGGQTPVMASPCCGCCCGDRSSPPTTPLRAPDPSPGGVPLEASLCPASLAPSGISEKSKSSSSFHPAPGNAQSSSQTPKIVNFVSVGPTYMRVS
T1 sequence (looked up) 2: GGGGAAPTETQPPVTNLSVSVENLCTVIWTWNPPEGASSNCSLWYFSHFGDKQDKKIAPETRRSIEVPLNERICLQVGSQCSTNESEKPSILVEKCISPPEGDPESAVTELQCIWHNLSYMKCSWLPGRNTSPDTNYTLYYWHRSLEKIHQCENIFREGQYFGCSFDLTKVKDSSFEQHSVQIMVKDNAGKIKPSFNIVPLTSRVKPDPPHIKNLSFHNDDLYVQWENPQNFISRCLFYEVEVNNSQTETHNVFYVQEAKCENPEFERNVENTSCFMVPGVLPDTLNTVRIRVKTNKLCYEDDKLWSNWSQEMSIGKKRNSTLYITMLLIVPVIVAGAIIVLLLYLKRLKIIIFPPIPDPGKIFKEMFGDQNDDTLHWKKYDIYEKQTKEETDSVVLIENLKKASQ

[2] = biological target: T1, IL4R Type-II (IL4Rα chain with …); test: cell-based or functional assay; remark: listed apart in the source
[3] = biological target: T2, IL13Rα1 Protein, Mouse, Recombinant, His Tag (mouse, UniProt O09030 26-340, limits assumed); test: ELISA, receptor coated on plate, anti-human IgG Fc detection
T2 construct: also called mouse IL13Rα1; mIL13Rα1; not shown: His tag
T2 sequence (looked up): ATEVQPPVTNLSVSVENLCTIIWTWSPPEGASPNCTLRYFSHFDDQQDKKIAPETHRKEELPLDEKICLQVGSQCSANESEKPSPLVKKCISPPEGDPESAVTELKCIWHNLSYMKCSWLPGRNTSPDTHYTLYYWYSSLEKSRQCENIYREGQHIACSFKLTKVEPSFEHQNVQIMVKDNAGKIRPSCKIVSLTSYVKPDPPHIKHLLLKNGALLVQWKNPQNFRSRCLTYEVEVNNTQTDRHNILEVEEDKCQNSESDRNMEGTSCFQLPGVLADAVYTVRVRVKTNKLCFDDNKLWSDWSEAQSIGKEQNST

[4] = biological target: T3, IL13Rα Protein, Human, Recombinant, His Tag (human IL13Rα1) (human, UniProt P78552 22-343, limits assumed); test: as above
T3 construct: also called hIL13Rα1; IL13Ra1; not shown: His tag
T3 sequence (looked up): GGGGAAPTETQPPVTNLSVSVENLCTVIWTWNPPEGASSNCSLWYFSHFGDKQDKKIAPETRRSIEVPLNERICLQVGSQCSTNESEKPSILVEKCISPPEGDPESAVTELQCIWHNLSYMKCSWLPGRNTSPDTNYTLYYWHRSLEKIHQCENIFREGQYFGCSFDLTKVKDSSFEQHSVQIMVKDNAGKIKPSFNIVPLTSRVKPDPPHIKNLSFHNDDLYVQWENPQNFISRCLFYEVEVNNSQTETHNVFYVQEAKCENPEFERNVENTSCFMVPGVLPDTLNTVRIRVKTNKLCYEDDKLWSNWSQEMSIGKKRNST

[5] = biological target: T1, IL4R Type-II (IL4Rα chain with …); test: cell-based or functional assay; remark: listed apart in the source

B1: Fc4-MDNA413 (1:2) (Fc fusion)
chain: APPCPSCPAPEFLGGPSVFLFPPKPKDTLMISRTPEVTCVVVDVSQEDPEVQFNWYVDGVEVHNAKTKPREEQFNSTYRVVSVLTVLHQDWLNGKEYKCKVSNKGLPSSIEKTISKAKGQPREPQVYTLPPSQEEMTKNQVSLTCLVKGFYPSDIAVEWESNGQPENNYKTTPPVLDSDGSFFLYSRLTVDKSRWQEGNVFSCSVMHEALHNHYTQKSLSLSPGKGGGSGSPGPVPPSTAVRALIEELINITQNQKAPLCNGSMVWSINRTAGMYCAALESLINVSGCSAIEKTQDMLSGFCPHKVSAGQFSSLHVRSSKIEVAQFVKDLLFHLRTLFREGQFN
notes: also called Fc4-MDNA413^R39/Q111 (1:2)
IL4 EC50 (nM); IL-4 competitive assay, HEK-Blue IL-4/IL-13 reporter cells [1]: 7.5 nM | IL 13 EC50 (nM); IL-13 competitive assay, HEK-Blue IL-4/IL-13 reporter cells [1]: 37.8 nM | IL-4 Mediated M2 polarization CD206 (IC50 nM), second donor [2]: 2.01 nM | IL-4 Mediated M2 polarization CD209 (IC50 nM), first donor [2]: 0.59 nM | IL-4 Mediated M2 polarization CD209 (IC50 nM), second donor [2]: 2.3 nM | binding result [3]: binds | binding result [4]: binds | IL-13 Mediated M2 polarization CD206 (IC50 nM), first donor [5]: 0.48 nM | IL-13 Mediated M2 polarization CD209 (IC50 nM), first donor [5]: 1.6 nM | IL-13 Mediated M2 polarization CD209 (IC50 nM), second donor [5]: 0.492 nM
